Assay results from patent publication US20260241018A1.

Columns and labels:
[1] = target: mouse 5T4 expressed on CHO-S cells (CHO-m5T4 cells) (mouse) (UniProt Q9Z0L0); assay: flow cytometry, CHO-m5T4 cells
[2] = target: human 5T4 expressed on CHO-S cells (CHO-h5T4 cells) (human) (UniProt Q13641); assay: flow cytometry, CHO-h5T4 cells
[3] = target: monkey (Macaca fascicularis) 5T4 expressed on CHO-S cells (CHO-fas5T4 cells) (monkey (Macaca fascicularis)) (UniProt Q4R8Y9); assay: flow cytometry, CHO-fas5T4 cells
[4] = target: dog 5T4 expressed on CHO-S cells (CHO-d5T4 cells) (dog); assay: flow cytometry, CHO-d5T4 cells
dog 5T4 expressed on CHO-S cells (CHO-d5T4 cells) (dog), sequence (chain, as listed by the source limits assumed): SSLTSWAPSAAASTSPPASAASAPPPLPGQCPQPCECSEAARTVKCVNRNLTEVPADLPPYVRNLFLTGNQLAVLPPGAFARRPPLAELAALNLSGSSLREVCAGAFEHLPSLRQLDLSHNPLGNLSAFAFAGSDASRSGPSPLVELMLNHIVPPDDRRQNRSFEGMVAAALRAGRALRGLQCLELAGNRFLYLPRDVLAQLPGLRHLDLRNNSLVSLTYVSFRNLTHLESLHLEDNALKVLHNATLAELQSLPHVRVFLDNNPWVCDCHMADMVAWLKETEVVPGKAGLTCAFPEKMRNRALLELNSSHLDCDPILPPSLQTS

human 5T4 expressed on CHO-S cells (CHO-h5T4 cells) (human), sequence (Q13641 32-355): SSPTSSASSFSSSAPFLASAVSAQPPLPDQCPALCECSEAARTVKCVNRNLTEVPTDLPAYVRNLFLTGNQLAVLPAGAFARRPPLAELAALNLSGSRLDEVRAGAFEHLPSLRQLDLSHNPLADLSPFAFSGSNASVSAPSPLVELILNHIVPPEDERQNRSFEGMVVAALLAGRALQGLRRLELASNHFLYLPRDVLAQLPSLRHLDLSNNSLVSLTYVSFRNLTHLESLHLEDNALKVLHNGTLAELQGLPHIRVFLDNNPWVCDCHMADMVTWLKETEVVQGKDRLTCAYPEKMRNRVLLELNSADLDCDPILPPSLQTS
monkey (Macaca fascicularis) 5T4 expressed on CHO-S cells (CHO-fas5T4 cells) (monkey (Macaca fascicularis)), sequence (Q4R8Y9 35-355): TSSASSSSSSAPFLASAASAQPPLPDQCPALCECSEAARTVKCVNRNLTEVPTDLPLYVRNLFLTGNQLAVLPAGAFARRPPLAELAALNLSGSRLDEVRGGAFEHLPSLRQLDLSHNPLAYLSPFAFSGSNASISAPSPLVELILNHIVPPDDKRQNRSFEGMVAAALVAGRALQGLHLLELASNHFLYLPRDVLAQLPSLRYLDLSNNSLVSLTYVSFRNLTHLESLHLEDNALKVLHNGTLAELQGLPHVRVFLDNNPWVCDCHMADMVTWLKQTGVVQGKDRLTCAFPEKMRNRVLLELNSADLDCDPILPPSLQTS
mouse 5T4 expressed on CHO-S cells (CHO-m5T4 cells) (mouse), sequence (Q9Z0L0 32-361): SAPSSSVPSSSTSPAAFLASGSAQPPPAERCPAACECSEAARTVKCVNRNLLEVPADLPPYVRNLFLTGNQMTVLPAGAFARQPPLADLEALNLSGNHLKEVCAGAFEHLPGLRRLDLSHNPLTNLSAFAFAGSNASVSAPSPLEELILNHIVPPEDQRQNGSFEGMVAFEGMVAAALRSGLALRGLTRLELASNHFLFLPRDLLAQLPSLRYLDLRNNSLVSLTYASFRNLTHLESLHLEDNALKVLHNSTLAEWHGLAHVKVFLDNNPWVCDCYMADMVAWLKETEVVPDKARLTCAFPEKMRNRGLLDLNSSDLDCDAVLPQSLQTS

Row | Percentage of Positive Cells [1] [%] | Percentage of Positive Cells [2] [%] | Percentage of Positive Cells [3] [%] | Percentage of Positive Cells [4] [%] | Substance
1 | 0.7 | 1 | 1.3 | 1 | NC
2 | 0.2 | 2 | 1.6 | 0.2 | NC + secondary antibody
